Assay results reported in PMC9352680, “A comprehensive thermodynamic model for RNA binding by the Saccharomyces cerevisiae Pumilio protein PUF4”.

T1: PUF4 RNA-binding domain (Saccharomyces cerevisiae, UniProt P25339 537-888)
T1 sequence: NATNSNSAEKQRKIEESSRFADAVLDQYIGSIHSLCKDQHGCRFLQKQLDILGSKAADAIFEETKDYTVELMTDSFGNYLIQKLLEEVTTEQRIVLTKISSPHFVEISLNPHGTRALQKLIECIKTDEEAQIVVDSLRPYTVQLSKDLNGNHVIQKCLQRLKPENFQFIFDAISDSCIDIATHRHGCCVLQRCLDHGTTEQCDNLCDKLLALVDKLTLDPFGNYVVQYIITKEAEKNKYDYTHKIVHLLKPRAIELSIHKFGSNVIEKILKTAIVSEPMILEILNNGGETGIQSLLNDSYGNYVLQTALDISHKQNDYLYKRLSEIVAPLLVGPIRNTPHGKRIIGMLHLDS


biological target: T1, PUF4 RNA-binding domain; assay: Mg; RNA-MaP; 20 mM Na-HEPES pH 7.4, 30 mM KOAc, 0.75 mM MgCl2, 0.1% Tween-20, 5% glycerol, 0.1 mg/mL BSA, 2 mM DTT; 25 C; 0.0125-409.6 nM protein; settings: tags: N-His6-TEV cleaved; C-SNAP kept, Cy3B-labelled; label: tethered on chip by stalled RNA polymerase

Row | Binder | Kd [nM]
1 | UCUCUUUGUAUUCCUCUCUU (ssRNA) [Ic_S1_P3E.1_K3.1_C3.1_H3.1_A3.1_[A6T]_F3.1_[T7C]_[A8C]_T3.1] | 113
2 | UCUCUUUGUAGCCUUUCUCUU (ssRNA) [Ic_S1_P4E.1_K4.1_C4.1_H4.1_A4.1_[T5G]_[A6C]_[T7C]_F4.1_[A9T]_T4.1] | 679
3 | UCUCUUUGUAUCACUCUCUU (ssRNA) [Ic_S1_P3E.1_K3.1_C3.1_H3.1_A3.1_[A6C]_F3.1_[T7A]_[A8C]_T3.1] | 127
4 | UCUCUUUGUAUUAUUCUCUU (ssRNA) [Ic_S1_P3E.1_K3.1_C3.1_H3.1_A3.1_[A6T]_F3.1_[T7A]_[A8T]_T3.1] | 14.5
5 | UCUCUUUGUAUCGGUCUCUU (ssRNA) [Ic_S1_P3E.1_K3.1_C3.1_H3.1_A3.1_[A6C]_F3.1_[T7G]_[A8G]_T3.1] | 1940
6 | UCUCUUUGUAGCCCGUCUCUU (ssRNA) [Ic_S1_P4E.1_K4.1_C4.1_H4.1_A4.1_[T5G]_[A6C]_[T7C]_F4.1_[T8C]_[A9G]_T4.1] | > 2300
7 | UCUCUUUGUAUGCCUCUCUU (ssRNA) [Ic_S1_P3E.1_K3.1_C3.1_H3.1_A3.1_[A6G]_F3.1_[T7C]_[A8C]_T3.1] | 1720
8 | UCUCUUUGUAGCCGUUCUCUU (ssRNA) [Ic_S1_P4E.1_K4.1_C4.1_H4.1_A4.1_[T5G]_[A6C]_[T7C]_F4.1_[T8G]_[A9T]_T4.1] | > 2300
9 | UCUCUUUGUAGCUGCUCUCUU (ssRNA) [Ic_S1_P4E.1_K4.1_C4.1_H4.1_A4.1_[T5G]_[A6C]_F4.1_[T8G]_[A9C]_T4.1] | 2070
10 | UCUCUUUGUAUUGGUCUCUU (ssRNA) [Ic_S1_P3E.1_K3.1_C3.1_H3.1_A3.1_[A6T]_F3.1_[T7G]_[A8G]_T3.1] | 1360
11 | UCUCUUUGUAGCUUGUCUCUU (ssRNA) [Ic_S1_P4E.1_K4.1_C4.1_H4.1_A4.1_[T5G]_[A6C]_F4.1_[A9G]_T4.1] | 1590
12 | UCUCUUUGUAUCCUUCUCUU (ssRNA) [Ic_S1_P3E.1_K3.1_C3.1_H3.1_A3.1_[A6C]_F3.1_[T7C]_[A8T]_T3.1] | 39.8
13 | UCUCUUUGUAGCCUAUCUCUU (ssRNA) [Ic_S1_P4E.1_K4.1_C4.1_H4.1_A4.1_[T5G]_[A6C]_[T7C]_F4.1_T4.1] | 34.3
14 | UCUCUUUGUAGCAUUUCUCUU (ssRNA) [Ic_S1_P4E.1_K4.1_C4.1_H4.1_A4.1_[T5G]_[A6C]_[T7A]_F4.1_[A9T]_T4.1] | 32.4
15 | UCUCUUUGUAUACCUCUCUU (ssRNA) [Ic_S1_P3E.1_K3.1_C3.1_H3.1_A3.1_F3.1_[T7C]_[A8C]_T3.1] | 48.9
16 | UCUCUUUGUAUAGUUCUCUU (ssRNA) [Ic_S1_P3E.1_K3.1_C3.1_H3.1_A3.1_F3.1_[T7G]_[A8T]_T3.1] | 11
17 | UCUCUUUGUAGCAGCUCUCUU (ssRNA) [Ic_S1_P4E.1_K4.1_C4.1_H4.1_A4.1_[T5G]_[A6C]_[T7A]_F4.1_[T8G]_[A9C]_T4.1] | > 2300
18 | UCUCUUUGUAUUAGUCUCUU (ssRNA) [Ic_S1_P3E.1_K3.1_C3.1_H3.1_A3.1_[A6T]_F3.1_[T7A]_[A8G]_T3.1] | 349
19 | UCUCUUUGUAUAUAUCUCUU (ssRNA) [If_S1_P3E.1_K3.1_C3.1_H3.1_A3.1_F3.1_T3.1] | 4.91
20 | UCUCUUUGUAGCAAUUCUCUU (ssRNA) [Ic_S1_P4E.1_K4.1_C4.1_H4.1_A4.1_[T5G]_[A6C]_[T7A]_F4.1_[T8A]_[A9T]_T4.1] | 857
21 | UCUCUUUGUAGCACGUCUCUU (ssRNA) [Ic_S1_P4E.1_K4.1_C4.1_H4.1_A4.1_[T5G]_[A6C]_[T7A]_F4.1_[T8C]_[A9G]_T4.1] | > 2300
22 | UCUCUUUGUAUGCUUCUCUU (ssRNA) [Ic_S1_P3E.1_K3.1_C3.1_H3.1_A3.1_[A6G]_F3.1_[T7C]_[A8T]_T3.1] | 434
23 | UCUCUUUGUAUAGCUCUCUU (ssRNA) [Ic_S1_P3E.1_K3.1_C3.1_H3.1_A3.1_F3.1_[T7G]_[A8C]_T3.1] | 82.1
24 | UCUCUUUGUAGCAACUCUCUU (ssRNA) [Ic_S1_P4E.1_K4.1_C4.1_H4.1_A4.1_[T5G]_[A6C]_[T7A]_F4.1_[T8A]_[A9C]_T4.1] | 1210
25 | UCUCUUUGUAGCCAUUCUCUU (ssRNA) [Ic_S1_P4E.1_K4.1_C4.1_H4.1_A4.1_[T5G]_[A6C]_[T7C]_F4.1_[T8A]_[A9T]_T4.1] | 1890
26 | UCUCUUUGUAGCAUCUCUCUU (ssRNA) [Ic_S1_P4E.1_K4.1_C4.1_H4.1_A4.1_[T5G]_[A6C]_[T7A]_F4.1_[A9C]_T4.1] | 398

Row | Binder | Kd [nM]
27 | UCUCUUUGUAGCAGUUCUCUU (ssRNA) [Ic_S1_P4E.1_K4.1_C4.1_H4.1_A4.1_[T5G]_[A6C]_[T7A]_F4.1_[T8G]_[A9T]_T4.1] | 1440
28 | UCUCUUUGUAUUCUUCUCUU (ssRNA) [Ic_S1_P3E.1_K3.1_C3.1_H3.1_A3.1_[A6T]_F3.1_[T7C]_[A8T]_T3.1] | 32.5
29 | UCUCUUUGUAGCCCUUCUCUU (ssRNA) [Ic_S1_P4E.1_K4.1_C4.1_H4.1_A4.1_[T5G]_[A6C]_[T7C]_F4.1_[T8C]_[A9T]_T4.1] | > 2300
30 | UCUCUUUGUAGCACAUCUCUU (ssRNA) [Ic_S1_P4E.1_K4.1_C4.1_H4.1_A4.1_[T5G]_[A6C]_[T7A]_F4.1_[T8C]_T4.1] | 1440
31 | UCUCUUUGUAUGGUUCUCUU (ssRNA) [Ic_S1_P3E.1_K3.1_C3.1_H3.1_A3.1_[A6G]_F3.1_[T7G]_[A8T]_T3.1] | 509
32 | UCUCUUUGUAUCCCUCUCUU (ssRNA) [Ic_S1_P3E.1_K3.1_C3.1_H3.1_A3.1_[A6C]_F3.1_[T7C]_[A8C]_T3.1] | 531
33 | UCUCUUUGUAUUCGUCUCUU (ssRNA) [Ic_S1_P3E.1_K3.1_C3.1_H3.1_A3.1_[A6T]_F3.1_[T7C]_[A8G]_T3.1] | 523
34 | UCUCUUUGUAUUACUCUCUU (ssRNA) [Ic_S1_P3E.1_K3.1_C3.1_H3.1_A3.1_[A6T]_F3.1_[T7A]_[A8C]_T3.1] | 167
35 | UCUCUUUGUAGCGUGUCUCUU (ssRNA) [Ic_S1_P4E.1_K4.1_C4.1_H4.1_A4.1_[T5G]_[A6C]_[T7G]_F4.1_[A9G]_T4.1] | 2000
36 | UCUCUUUGUAGCCGGUCUCUU (ssRNA) [Ic_S1_P4E.1_K4.1_C4.1_H4.1_A4.1_[T5G]_[A6C]_[T7C]_F4.1_[T8G]_[A9G]_T4.1] | > 2300
37 | UCUCUUUGUAGCAAAUCUCUU (ssRNA) [Ic_S1_P4E.1_K4.1_C4.1_H4.1_A4.1_[T5G]_[A6C]_[T7A]_F4.1_[T8A]_T4.1] | 833
38 | UCUCUUUGUAUGAUUCUCUU (ssRNA) [Ic_S1_P3E.1_K3.1_C3.1_H3.1_A3.1_[A6G]_F3.1_[T7A]_[A8T]_T3.1] | 42.2
39 | UCUCUUUGUAUCGCUCUCUU (ssRNA) [Ic_S1_P3E.1_K3.1_C3.1_H3.1_A3.1_[A6C]_F3.1_[T7G]_[A8C]_T3.1] | 859
40 | UCUCUUUGUAUCAGUCUCUU (ssRNA) [Ic_S1_P3E.1_K3.1_C3.1_H3.1_A3.1_[A6C]_F3.1_[T7A]_[A8G]_T3.1] | 483
41 | UCUCUUUGUAGCUUCUCUCUU (ssRNA) [Ic_S1_P4E.1_K4.1_C4.1_H4.1_A4.1_[T5G]_[A6C]_F4.1_[A9C]_T4.1] | 612
42 | UCUCUUUGUAGCCACUCUCUU (ssRNA) [Ic_S1_P4E.1_K4.1_C4.1_H4.1_A4.1_[T5G]_[A6C]_[T7C]_F4.1_[T8A]_[A9C]_T4.1] | > 2300
43 | UCUCUUUGUAGCCGAUCUCUU (ssRNA) [Ic_S1_P4E.1_K4.1_C4.1_H4.1_A4.1_[T5G]_[A6C]_[T7C]_F4.1_[T8G]_T4.1] | > 2300
44 | UCUCUUUGUAGCGUUUCUCUU (ssRNA) [Ic_S1_P4E.1_K4.1_C4.1_H4.1_A4.1_[T5G]_[A6C]_[T7G]_F4.1_[A9T]_T4.1] | 964
45 | UCUCUUUGUAGCUCUUCUCUU (ssRNA) [Ic_S1_P4E.1_K4.1_C4.1_H4.1_A4.1_[T5G]_[A6C]_F4.1_[T8C]_[A9T]_T4.1] | 2020
46 | UCUCUUUGUAGCACUUCUCUU (ssRNA) [Ic_S1_P4E.1_K4.1_C4.1_H4.1_A4.1_[T5G]_[A6C]_[T7A]_F4.1_[T8C]_[A9T]_T4.1] | 949
47 | UCUCUUUGUAGCGUCUCUCUU (ssRNA) [Ic_S1_P4E.1_K4.1_C4.1_H4.1_A4.1_[T5G]_[A6C]_[T7G]_F4.1_[A9C]_T4.1] | 1710
48 | UCUCUUUGUAUACGUCUCUU (ssRNA) [Ic_S1_P3E.1_K3.1_C3.1_H3.1_A3.1_F3.1_[T7C]_[A8G]_T3.1] | 82
49 | UCUCUUUGUAUGACUCUCUU (ssRNA) [Ic_S1_P3E.1_K3.1_C3.1_H3.1_A3.1_[A6G]_F3.1_[T7A]_[A8C]_T3.1] | 1070
50 | UCUCUUUGUAUCGUUCUCUU (ssRNA) [Ic_S1_P3E.1_K3.1_C3.1_H3.1_A3.1_[A6C]_F3.1_[T7G]_[A8T]_T3.1] | 326
51 | UCUCUUUGUAUUGUUCUCUU (ssRNA) [Ic_S1_P3E.1_K3.1_C3.1_H3.1_A3.1_[A6T]_F3.1_[T7G]_[A8T]_T3.1] | 38.1
